Experimental data reported in the nanobody polyreactivity screen of Harvey et al. (2022).

experiment: yeast display, Sf9 membrane polyspecificity reagent, FACS + sequencing; frameworks hold sequencing errors
In short: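 Sorting gates, low and high (top ~1%), were placed on anti-HA fluorescence to track expression and on streptavidin fluorescence to track reagent binding. A clone's polyreactivity label is taken from the gate it came out of. The reagent was 10% biotinylated, detergent-solubilized Sf9 membrane, applied for 1 hour at 4 °C to galactose-induced yeast display cells.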

Row | Sequence | polyreactivity (PSR sort gate)
1 | QVQLVESGGGLVQAGGSLRLSCAASGSTFDYYAMGWYRQAPGKERELVAVISSSGGSTYYADSVKGRFTISRDNAKNTVYLQMNSLKPEDTAVYYCAALYRNYGSSYAYYYWGQGTQVTVSS | low polyreactivity
2 | QVQLVESGGGLVQAGGSLRLSCAASGIIFYYNAMGWYRQAPGKERELVAAIDDRGDSTYYADSVKGRFTISRDNAKNTVYLEMNSLKPEDTAVYYCATDGHYLYSWYKYDYWGQGTQVTVSS | low polyreactivity
3 | QVQLVESGGGLVQAGGSHRLSCAASGIIFILYTMGWYRQAPGKERELVATISSGGGSTFYADSVKGRFTISRDNAKNTVYLQMNSLKPEDTAVYYCAAYPVFGYSYDYWGQGTQVTVSS | low polyreactivity
4 | QVQLVESAGGLVQAGGSLRISCAASGIIFARYSMGWYRPAPGKERELVAAINSSGGDTYYADSVKGRFTISRDTANNTVYLQMISLKPEDPAVYYCAKVISYLVVLPRTERYEGDYWGQGTQVTVSS | low polyreactivity
5 | QVQLVESGGGLVQAGGSLRLSCAASGFIIYYNAMGWYRQAPGKEREFVAGISFSGDGRTYYADSVKGRFTISRDNAKNTVYLQMNSLKPEDTAVYYCAAPHRSRTHELDYWGQGTQVTVSS | low polyreactivity
6 | QVQLVESGGGLVQAGGSLRLSCAASGSIFYSNAMGWYRQAPGKERELVATIRSGGTTYYADSVKGRFTISRDNAKNTVYLQMNSLKPEDTAVYYCAKRYGVKYWGQGTQVTVSS | high polyreactivity
7 | QVQIVESGGGLVQAGGSLRLSCAASGRIFDGNALGWYRQAPGKERELVAAISRIGGTYYADSVKGRFTISRDNAKNTVYLQMNRLKPEDTAVYYCAADPSSVGYHVEYDYWGQGTQVTVSS | low polyreactivity
8 | QVQLVESGGGLVQAGGSLRLSCAASGRIFPRYAMGWYRQAPGKERELVASISGTGSRTYYADSVKGRFTISRDNAKNTVYLQMNSLKPEDTAVYYCAAYSFRKLDYYWGQGTQVTVSS | high polyreactivity
9 | QVQLVESVGGLVQAGGSLRLSCAASGLTFWYYAMGCYRQAPGKERELVARITRSGVGTYYADSVKGRFTISRDNAKNTVYLQMNSLKAEDTAVYYCNARYQYSWVRYGYDYWGQGTQVTVSS | high polyreactivity
10 | QVQLVESGGGLVQAGGRLRLSCAPSGTTFNPYTMGLYRQAPGKEGELVATITRIGGSTYYADSVKGRFTISRDNAKNTVYLQMNSLKPEDTAVYYCAADHYRSVRWRSNYTYRVNYWGQGTQVTVSS | high polyreactivity
11 | QVQLVESGGGLVQAGGSLRLSCAASGSIFSGYAMGWYRQAPGKEREFVAAISSSGGRTYYADSVKGRFTISRDNAKNTVYLQMNSLKPEDTAVYYCNAVSSYGYDYWGQGTQVTVSS | high polyreactivity
12 | QVQLVESGGGLVQAGGSLRLSCAASGRIFSHNVMGWYRQAPGKERELVAAISGRDGSTYYADSVKGRFTISRDNAKNTVYLQMNSLKPEDTAVYYCATDTSNVEGDYWGQGTQVTVSS | low polyreactivity
13 | QVQLVESGGGLVQAGGSLRLICAASGRIFGSYVMGWYRQAPGKERELVAAISFSGDTTYYADSVKGRFTISRDNAKNTVYLQMNSLKPDDTAVYYCAAEFPQGYYAFKYDYWGQGTQVTVSS | high polyreactivity
14 | QVQLVESGGGLVQAGGSLRLSCAASGFTFPYYAMGWYREAPGKERELVAAISFSGGRTYYADSVKGRFTISRDNAKNTVYLQMNSLKPEDTAVYYCAAAKTYYRYNYWGQGTQVSVSS | high polyreactivity
15 | QVQLVESGGGLVQAGGSLRLSCGASGRTFPVYAMGWYRQAPGKERELVADISDGGSTNYADSVKGRFTISRDNAKNTVDLQMNSLKPEDTAVYYCNATTFAFSPSLKGAYGYWGQGTQVTVST | low polyreactivity
16 | QVQLVESAGGLVQAGGSLSLSCAASGRIFNLYAMGWYRKAPGKERELVAAIRGRGTSTYYADSVKGRFTISRDNAKNTVYLQMNSLKPEDTAVYYCAREGGYGPTLQDTSRYEYWGQGTQVTVSS | low polyreactivity
17 | QVQLVESGGGLVQAGGSLSLSCAASGSTFAFYAMGCYRQAPGKERDLVAASTRSAGSTYYADSVKGRFTISRDNATTTVYLPMNSLKREDTAVYYCAKYVSYSRTLYDYWGQGTQVTVSS | low polyreactivity
18 | AVQLEESRGGLVQAGGSLRLSCAASGFIFTVNAMGWSRQAPGKERELVAAITQSGGNTSYADSVKGRFTFSRDNAKNTFYLQMNSLKPEDTAVYYCAADDVDVEHPASWDDYDSWGQGTQVTVSS | low polyreactivity
19 | QVQLVESGGGLVQAGGSLRLSCAASGSTFFGYTMGWYRQARGKERELVAAITRRGGSTYYADSVKGRFTISRDNAKNTVYLQLNSLKPEDTAVYYCNAVSKSTNYAGRYDYWGQATQVTVSS | high polyreactivity
20 | QVQLVESGGGLVQAGGSLRLSCAASGSTLGRYAMGWYRQAPGKERELVASITWSDDSTYYADSVKGRFTISRDNAKNTVYLQMNSLKPEDTAVYYCAAAGNLYTYRFYYWGQGTQVTVSS | low polyreactivity
21 | QVQLVESGGGLVQAGGSLRLSCAASGNTFYRNAMGWYRQAPGKERELVAGISNGGSTNYADSVKGRFTISRDNAKNTVYLQMNSLKPEDTAVYYCAKDEPKVSRAFDYWGQGTQVTVSS | low polyreactivity
22 | QVQLVESGGGLVQAGGSLLLSCAASGSTFPGYAMGWYRQEPGKERELVAAGGSTYYADSVKGRFTISLDNAKNTVYLQMNSLKPEDTAVYYCNARWYLVPIMEYLGQGTQVTVSS | low polyreactivity

Row | Sequence | polyreactivity (PSR sort gate)
23 | QVQLVESGGGLVQAGGSLRLCCAASGRIFAGNAMGWYRQAPGKEREFVAGISKGGGRTYYADSVKGRCTISRDNAKKTVYLQMNSLKPEDTAVYYCAALPPRASSDAGGWYVAEDYWGQGTQVTVSS | high polyreactivity
24 | QVQLQESGGGLVQAGGSLRLSCAASGTIFWLWAMGWYCQAPGKERELVASISSGGTTYHADSVKGRFTISRDNAKNTVYLQMNSLKPEDTAVYYSAAFYVATAKLGFWGQGSQVTVSS | low polyreactivity
25 | QVQLVESGGGLVQAGGSLRLSCAASGSIFDRYVMGWYRPAPGKERELVAAISKSGGNTYYADSVKGRFTISRDYEKNTVYLQMNSLKPEDTAVYYCNARSGRYYLGYGYWGQGTQVTVSS | high polyreactivity
26 | QVQLVESGGGLVQAGCSLRLSCAASGSIYLVNAMGWYRQAPGKERELVAAIDWSGDTTYYADSVKGRFTISRDYEKNTVYLQMNRLKPEDTAVYYCAAEYEFHEYDYWGQGTQVTVSS | high polyreactivity
27 | QVQLVESGGGLVQAGGSLRLSCAASGSTFTYYAMGWYRQAPGKERELVAAISRSGGNTYYADSVKGRFTISRDNAKNTVYLQMNSLKPEDTAVYYCAAYRQVYGFDYWGQGTQVTVSS | high polyreactivity
28 | QVQLVESGGGLVQAGGSLRLSCAASGRTFPYNAMGWYRQAPGKERELVAAISYSGGRTYYADSVKGRFTISRDNAKNTVYLQMNSLKPEDTAVYYCNALGSGREDDYWGQGTQVTVSS | high polyreactivity
29 | QVQLVESGGGLVQAGGSHRLSCAASGRTFAPNAMGWYRQAPGKERELVAAISSVGITYYADSVNGRFTISRDNAKNTVYLQMNSLNPEDTAVYYCAKVRKTRSITDGYGYWGQGTQVTVSS | low polyreactivity
30 | QVQLVESGGGLGQAGGSLRLSCAASGSIFSFYAMGWYRQAPGKERELVAVINTDGDNTYYADSVKGRFTISRDNAKNTVYLQMNSLKAEDSAVYYCAASVSSYSYTRGGYWGQGTQVTVSS | high polyreactivity
31 | QVQLVESWGGLVQAGGSLRLSCAASGRIFRNYVMGWYRQAPGKERELVAAISRSGGSTYYADSVKGRFTISRDNAKNTVYLQMNSLKPEDTAVYYCNADYATRRVSLNYGYWGQGTQVTVSS | high polyreactivity
32 | QVQLVESGGGLVQAGGSLRLSCAASGFTFRYYTMGWYRQAPGKEREFVAAIRGGGSSTYYADSVKGRFTISRDNAKNTVYLQMTSLKPEDTAVYSCAAVTSQLYGYRYYYGGQGTQVTVSS | high polyreactivity
33 | QVQLVESGGGIVQAGGSLRLSCAASGGTFTRYAMGWYRQAPGKEREFVAAISGSGGSTYYADSVKGRFTISRDNAKNTVYLQMNSLKPVDTAVYYCNKVPVYPPSYYWGQGTQVTVSS | low polyreactivity
34 | QVQLVESGGGLVQAGGSVRLSCAASGFTFWRYAMGWYRQAPGKEREFVAAITRSGVSTSNADSVKGRFTISRDNAKNTVYLQMNSLKPEDTAVYYCAALFYTSVPYPDYDYWGQGTQVTVSS | high polyreactivity
35 | QVHLVESGGGLVQAGGSLRLSCAASGFTFSTYTMGWYRQSPGKERELVAAIRRSGDSTYYADSVKGRFTISRDNAKNTVYLQMNSLKPVDTAVYYCNAVLYRFERFDYWGQGTQVTVSS | high polyreactivity
36 | QVQLVESGGGLVQAGGSLRLSCAASGRTIPFYAMGWYRQAHGKERELVDAIDSGGNTYADSVKGRFTISRDNAKNTVYLQMISLKPEDTAVYYCAVDGGEFSSYGYWGQGTQVTVSS | low polyreactivity
37 | QVHLVVSGGGLVQAGGSLRLSCAASGRLLYKYAMGWNRQAPGKERELVAAISGSGGRTYYADSVKGRFTISRDNAKNTVYLQMNSLKPEDTAVYYCAAVHPFRHVLYDYWGQGTQVTVSS | low polyreactivity
38 | QVQLVESGGGLVQAGGSLRLICAASGSIFEYYAIRLYRQAPGTERELVADITYDGGNTYYADSLKGRFTISRDNAKNTVYLQMNSLKPEDTAVYYCATEYRYWQSDYSTYFPYDYWGQGTQVTVSS | low polyreactivity
39 | QVHLVESGGGLVQAGGSLRLSCAASGRIFRRNTMGWYRQAPGKERELVAAITSSGGSTYADSVKGRFTISRDNAKNTVYLQMNSLKPEDTAVYYCATYVAYHRGYRTYDHWGQGTQVTVSS | low polyreactivity
40 | QVQLVESGGGLVQAGGSLRLTCAASGSIFRDNVMGWSRQAPGKERELVAAISKRGGSTYYADSVKGRFTISRDNAKNTVYLQMNSLKPEDTAVYYCAAPQGRSHYYRYDYWGQGTQVTVSS | high polyreactivity
41 | QVQLVEAGGGLVQAGGSLRLSCAASGFIFPSYVRGWYSQAPGKERELVATISRSGGSTYYADSVKGRFTISRDNAKNTGYLQMNSLKPEDTAVYYCATRRRGPYSPYSPYDYWGQGTQVTVSS | high polyreactivity
42 | QVQLVESGGGLVQAGGSLRLSCAASGSIFDVNAMGWYRPAPGKERELVAAISDSGGSTYYADSVKGRFTISRDNAKNTVYLQMNSLQPQDTAVYSCNADWSWYNYYDFDYWGQGTQVTVSS | low polyreactivity
43 | QVQLHESGGGLVQAGGSLRLICAASGSISILQSMGWYRQAPGKERELVAGINWGATTYYADRVKGRLTTSRDYAKNTVYLQMNSLKPEATAVYYCAVPTYYTNPLLYWGQGTQVTVSS | low polyreactivity
